Biological target: the molecule itself
Assay: native gel or EMSA; native PAGE of purified HPK under neutral conditions (storage buffer 20 mM HEPES pH 7.45, 150 mM NaCl, 10% glycerol; pH 7.4), 4-15% gel, 25 mM Tris, 192 mM glycine pH 8.3

B1: HPK, HER3-targeted penton base chimera (heregulin ligand - linker - Ad5 penton base - decalysine) (other, human | adenovirus serotype 5 (Ad5))
chain: ELLPPRLKEMKSQESAAGSKLVLRCETSSEYSSLRFKWFKNGNELNRKNKPQNIKIQKKPGKSELRINKASLADSGEYMCKVISKLGNDSASANITIVESNEIITGMPASTEGAYVSSESPIRISVSTEGANTSSSTSTSTTGTSHLVKCAEKEKTFCVNGGECFMVKDLSNPSRYLCKCQPGFTGARCTENVPMKVQNQEKAEELYGGSGGSGSMRRAAMYEEGPPPSYESVVSAAPVAAALGSPFDAPLDPPFVPPRYLRPTGGRNSIRYSELAPLFDTTRVYLVDNKSTDVASLNYQNDHSNFLTTVIQNNDYSPGEASTQTINLDDRSHWGGDLKTILHTNMPNVNEFMFTNKFKARVMVSRLPTKDNQVELKYEWVEFTLPEGNYSETMTIDLMNNAIVEHYLKVGRQNGVLESDIGVKFDTRNFRLGFDPVTGLVMPGVYTNEAFHPDIILLPGCGVDFTHSRLSNLLGIRKRQPFQEGFRITYDDLEGGNIPALLDVDAYQASLKDDTEQGGGGAGGSNSSGSGAEENSNAAAAAMQPVEDMNDHAIRGDTFATRAEEKRAEAEAAAEAAAPAAQPEVEKPQKKPVIKPLTEDSKKRSYNLISNDSTFTQYRSWYLAYNYGDPQTGIRSWTLLCTPDVTCGSEQVYWSLPDMMQDPVTFRSTRQISNFPVVGAELLPVHSKSFYNDQAVYSQLIRQFTSLTHVFNRFPENQILARPPAPTITTVSENVPALTDHGTLPLRNSIGGVQRVTITDARRRTCPYVYKALGIVSPRVLSSRTFKKKKKKKKKK
notes: domain II, oligopeptide linker; domain III, adenovirus serotype 5 capsid penton base (PB); domain IV, carboxy-terminal decalysine tail (K10); About 92 kDa monomer; also called HerPBK10; HPK capsomere; not shown: His6, N-terminal, kept
stoichiometry N: ≥ 5
